From US20210388087A1 (Chugai, published 2021)

B1: H183/L072 VL E27aD (antibody, name in Kabat numbering, V domains shown)
VH: QVQLVESGGGLVQPGRSLRLSCAASGFTFSNAWMHWVRQAPGKGLEWVAQIKDKGNAYAAYYAPSVKGRFTISRDDSKNSIYLQMNSLKTEDTAVYYCHYVHYASASTVLPAFGVDAWGQGTTVTVSS
VL: DIVMTQSPLSLPVTPGEPASISCQASQDLVHMNRNTYLHWYQQKPGQAPRLLIYKVSNRFPGVPDRFSGSGSGTDFTLKISRVEAEDVGVYYCAQGTSVPFTFGQGTKLEIK
notes: Dual-Ig
B2: H183/L072 VL E27aQ (antibody, name in Kabat numbering, V domains shown)
VH: QVQLVESGGGLVQPGRSLRLSCAASGFTFSNAWMHWVRQAPGKGLEWVAQIKDKGNAYAAYYAPSVKGRFTISRDDSKNSIYLQMNSLKTEDTAVYYCHYVHYASASTVLPAFGVDAWGQGTTVTVSS
VL: DIVMTQSPLSLPVTPGEPASISCQASQQLVHMNRNTYLHWYQQKPGQAPRLLIYKVSNRFPGVPDRFSGSGSGTDFTLKISRVEAEDVGVYYCAQGTSVPFTFGQGTKLEIK
notes: Dual-Ig
B3: H183/L072 VL E27aN (antibody, name in Kabat numbering, V domains shown)
VH: QVQLVESGGGLVQPGRSLRLSCAASGFTFSNAWMHWVRQAPGKGLEWVAQIKDKGNAYAAYYAPSVKGRFTISRDDSKNSIYLQMNSLKTEDTAVYYCHYVHYASASTVLPAFGVDAWGQGTTVTVSS
VL: DIVMTQSPLSLPVTPGEPASISCQASQNLVHMNRNTYLHWYQQKPGQAPRLLIYKVSNRFPGVPDRFSGSGSGTDFTLKISRVEAEDVGVYYCAQGTSVPFTFGQGTKLEIK
notes: Dual-Ig
B4: H183/L072 VL E27aK (antibody, name in Kabat numbering, V domains shown)
VH: QVQLVESGGGLVQPGRSLRLSCAASGFTFSNAWMHWVRQAPGKGLEWVAQIKDKGNAYAAYYAPSVKGRFTISRDDSKNSIYLQMNSLKTEDTAVYYCHYVHYASASTVLPAFGVDAWGQGTTVTVSS
VL: DIVMTQSPLSLPVTPGEPASISCQASQKLVHMNRNTYLHWYQQKPGQAPRLLIYKVSNRFPGVPDRFSGSGSGTDFTLKISRVEAEDVGVYYCAQGTSVPFTFGQGTKLEIK
notes: Dual-Ig
B5: H183/L072 VL E27aG (antibody, name in Kabat numbering, V domains shown)
VH: QVQLVESGGGLVQPGRSLRLSCAASGFTFSNAWMHWVRQAPGKGLEWVAQIKDKGNAYAAYYAPSVKGRFTISRDDSKNSIYLQMNSLKTEDTAVYYCHYVHYASASTVLPAFGVDAWGQGTTVTVSS
VL: DIVMTQSPLSLPVTPGEPASISCQASQGLVHMNRNTYLHWYQQKPGQAPRLLIYKVSNRFPGVPDRFSGSGSGTDFTLKISRVEAEDVGVYYCAQGTSVPFTFGQGTKLEIK
notes: Dual-Ig
B6: H183/L072 VL E27aH (antibody, name in Kabat numbering, V domains shown)
VH: QVQLVESGGGLVQPGRSLRLSCAASGFTFSNAWMHWVRQAPGKGLEWVAQIKDKGNAYAAYYAPSVKGRFTISRDDSKNSIYLQMNSLKTEDTAVYYCHYVHYASASTVLPAFGVDAWGQGTTVTVSS
VL: DIVMTQSPLSLPVTPGEPASISCQASQHLVHMNRNTYLHWYQQKPGQAPRLLIYKVSNRFPGVPDRFSGSGSGTDFTLKISRVEAEDVGVYYCAQGTSVPFTFGQGTKLEIK
notes: Dual-Ig
B7: H183/L072 VL E27aS (antibody, name in Kabat numbering, V domains shown)
VH: QVQLVESGGGLVQPGRSLRLSCAASGFTFSNAWMHWVRQAPGKGLEWVAQIKDKGNAYAAYYAPSVKGRFTISRDDSKNSIYLQMNSLKTEDTAVYYCHYVHYASASTVLPAFGVDAWGQGTTVTVSS
VL: DIVMTQSPLSLPVTPGEPASISCQASQSLVHMNRNTYLHWYQQKPGQAPRLLIYKVSNRFPGVPDRFSGSGSGTDFTLKISRVEAEDVGVYYCAQGTSVPFTFGQGTKLEIK
notes: Dual-Ig
B8: H183/L072 VL E27aR (antibody, name in Kabat numbering, V domains shown)
VH: QVQLVESGGGLVQPGRSLRLSCAASGFTFSNAWMHWVRQAPGKGLEWVAQIKDKGNAYAAYYAPSVKGRFTISRDDSKNSIYLQMNSLKTEDTAVYYCHYVHYASASTVLPAFGVDAWGQGTTVTVSS
VL: DIVMTQSPLSLPVTPGEPASISCQASQRLVHMNRNTYLHWYQQKPGQAPRLLIYKVSNRFPGVPDRFSGSGSGTDFTLKISRVEAEDVGVYYCAQGTSVPFTFGQGTKLEIK
notes: Dual-Ig
B9: H183/L072 VL E27aT (antibody, name in Kabat numbering, V domains shown)
VH: QVQLVESGGGLVQPGRSLRLSCAASGFTFSNAWMHWVRQAPGKGLEWVAQIKDKGNAYAAYYAPSVKGRFTISRDDSKNSIYLQMNSLKTEDTAVYYCHYVHYASASTVLPAFGVDAWGQGTTVTVSS
VL: DIVMTQSPLSLPVTPGEPASISCQASQTLVHMNRNTYLHWYQQKPGQAPRLLIYKVSNRFPGVPDRFSGSGSGTDFTLKISRVEAEDVGVYYCAQGTSVPFTFGQGTKLEIK
notes: Dual-Ig
B10: H183/L072 VL E27aF (antibody, name in Kabat numbering, V domains shown)
VH: QVQLVESGGGLVQPGRSLRLSCAASGFTFSNAWMHWVRQAPGKGLEWVAQIKDKGNAYAAYYAPSVKGRFTISRDDSKNSIYLQMNSLKTEDTAVYYCHYVHYASASTVLPAFGVDAWGQGTTVTVSS
VL: DIVMTQSPLSLPVTPGEPASISCQASQFLVHMNRNTYLHWYQQKPGQAPRLLIYKVSNRFPGVPDRFSGSGSGTDFTLKISRVEAEDVGVYYCAQGTSVPFTFGQGTKLEIK
notes: Dual-Ig
B11: H183/L072 VL E27aP (antibody, name in Kabat numbering, V domains shown)
VH: QVQLVESGGGLVQPGRSLRLSCAASGFTFSNAWMHWVRQAPGKGLEWVAQIKDKGNAYAAYYAPSVKGRFTISRDDSKNSIYLQMNSLKTEDTAVYYCHYVHYASASTVLPAFGVDAWGQGTTVTVSS
VL: DIVMTQSPLSLPVTPGEPASISCQASQPLVHMNRNTYLHWYQQKPGQAPRLLIYKVSNRFPGVPDRFSGSGSGTDFTLKISRVEAEDVGVYYCAQGTSVPFTFGQGTKLEIK
notes: Dual-Ig
B12: H183/L072 VL E27aI (antibody, name in Kabat numbering, V domains shown)
VH: QVQLVESGGGLVQPGRSLRLSCAASGFTFSNAWMHWVRQAPGKGLEWVAQIKDKGNAYAAYYAPSVKGRFTISRDDSKNSIYLQMNSLKTEDTAVYYCHYVHYASASTVLPAFGVDAWGQGTTVTVSS
VL: DIVMTQSPLSLPVTPGEPASISCQASQILVHMNRNTYLHWYQQKPGQAPRLLIYKVSNRFPGVPDRFSGSGSGTDFTLKISRVEAEDVGVYYCAQGTSVPFTFGQGTKLEIK
notes: Dual-Ig
B13: H183/L072 VL E27aM (antibody, name in Kabat numbering, V domains shown)
VH: QVQLVESGGGLVQPGRSLRLSCAASGFTFSNAWMHWVRQAPGKGLEWVAQIKDKGNAYAAYYAPSVKGRFTISRDDSKNSIYLQMNSLKTEDTAVYYCHYVHYASASTVLPAFGVDAWGQGTTVTVSS
VL: DIVMTQSPLSLPVTPGEPASISCQASQMLVHMNRNTYLHWYQQKPGQAPRLLIYKVSNRFPGVPDRFSGSGSGTDFTLKISRVEAEDVGVYYCAQGTSVPFTFGQGTKLEIK
notes: Dual-Ig
B14: H183/L072 VL E27aL (antibody, name in Kabat numbering, V domains shown)
VH: QVQLVESGGGLVQPGRSLRLSCAASGFTFSNAWMHWVRQAPGKGLEWVAQIKDKGNAYAAYYAPSVKGRFTISRDDSKNSIYLQMNSLKTEDTAVYYCHYVHYASASTVLPAFGVDAWGQGTTVTVSS
VL: DIVMTQSPLSLPVTPGEPASISCQASQLLVHMNRNTYLHWYQQKPGQAPRLLIYKVSNRFPGVPDRFSGSGSGTDFTLKISRVEAEDVGVYYCAQGTSVPFTFGQGTKLEIK
notes: Dual-Ig

molecular target: T1, Human CD137 ECD (human); assay: Biacore SPR, vs parent H183/L072
T1 construct: entry includes C-terminal His-tag and biotin acceptor peptide; also called human CD137 extracellular domain; 4-1BB
T1 sequence (chain, as listed by the source limits assumed): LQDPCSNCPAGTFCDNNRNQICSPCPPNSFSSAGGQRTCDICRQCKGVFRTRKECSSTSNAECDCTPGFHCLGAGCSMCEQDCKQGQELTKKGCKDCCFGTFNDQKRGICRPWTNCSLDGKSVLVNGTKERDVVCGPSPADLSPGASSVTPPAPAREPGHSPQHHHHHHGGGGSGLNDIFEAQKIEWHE

B1 and B2 are the same in “fold change of affinity” value: 1.1 fold for the first, 1.1 fold for the second.

B3 and B4 are the same in “fold change of affinity” value: 0.9 fold for the first, 0.9 fold for the second.

Compared with B5, B6 is higher in “fold change of affinity” value: 1 fold for the first, 1.1 fold for the second.

First: B7
Second: B8
The “fold change of affinity” value of the first is lower: 0.6 fold for the first, 0.9 fold for the second.

Going from B9 to B10, the “fold change of affinity” value rises from 0.5 fold to 1.1 fold.

B11 and B12 are the same in “fold change of affinity” value: 0.8 fold for the first, 0.8 fold for the second.

B13 and B14 are the same in “fold change of affinity” value: 0.9 fold for the first, 0.9 fold for the second.
